“Also recorded” adds a separate entry of the source.

One molecule from US8563503B2, “Antibiotic, its nucleotide sequence, methods of construction and uses thereof” (Protein Design Lab. Ltd., priority 2011, dated 2013) can be followed below.

Data set [1] has as its system Staphylococcus aureus MRSA BAA-42. In words: MIC against the infecting strain (Table 2). It counts as cell-based. The conditions noted are these: Staphylococcus aureus MRSA BAA-42. In short, it runs like this: (§1)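 For Enterococcus, medium was MH supplemented with 5-10% defibrinated rabbit blood and incubation used 5% CO2 at 37° C. All strains are spotted at 10^5 CFU/ml onto agar carrying twofold drug dilutions and read after 18-24 h for absence of growth.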

The subject of data set [2] is Staphylococcus aureus ATCC 29213. Briefly: MIC against the infecting strain (Table 2). Format: cell-based. The conditions noted are these: ATCC29213. A digest of the protocol:
as §1

Another data set deals with E. coli 02-1-65. Briefly: MIC against the infecting strain (Table 2). Format: cell-based. The conditions noted are these: E. coli 02-1-65. A digest of the protocol:
as §1

The next data set deals with Enterococcus ATCC 700802. In words: MIC against the infecting strain (Table 2). Format: cell-based, Enterococcus faecalis. Conditions: ATCC700802. The protocol:
(3) Culture Solution • MH Broth Culture Solution: 25 g was added into […] distilled water, heat to dissolve, subpackaged, autoclaved at 116° C. for 20 minutes, and MH Solid Culture Medium, 36 g was added into 1000 ml distilled water, autoclaved at 116° C. for 20 minutes, used for drug sensitive test of Gram-positive and negative aerobic bacteria. • Blood culture solution for Enterococcus faecalis, which was prepared by adding defibration rabbit blood into the MH culture solution by 5-10% and cultured at 37° C. in 5% CO2 for 24 hours. 2. Experimental Methods (1) The Measurement of Minimum Inhibitory Concentration (MIC) • The Minimum Inhibitory Concentration (MIC) of PMC-SA1 was measured by Agar Doubling Dilution Method. The bacterium was inoculated on the surface of agar plate containing different concentration of drugs by multipoint inoculate instrument (Deneley A400). The bacterial content per point was 10^5 CFU/ml. After incubated at 37° C. for 18-24 hours, the result can be observed. The least concentration of drugs in plate culture solution without bacterium growing was Minimum Inhibitory Concentration (MIC) of the drug to the said bacteria. 3. Results

In data set [3] the test system is methicillin-resistant Staphylococcus aureus ATCC BAA-42. Briefly: Bacteria growth curve (A595 nm), comparison of the novel antibiotics. Format: cell-based. The conditions noted are these: drug 5 μg/ml, 37° C., A595 nm per hour. A digest of the protocol:
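MRSA ATCC BAA-42 (10^6 CFU/ml inoculum level) grown in peptone/NaCl/yeast extract/glucose/K2HPO4 broth at 37 °C, 200 rpm, with each polypeptide at 5 μg/ml; buffer (0.3 M NaCl + 50 mM boric acid) and penicillin G 5 μg/ml as controls. Turbidity (A595 nm) sampled hourly for growth curves.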

Data set [4] can be described thus: Immunization of mice, valence of mouse sera by indirect ELISA. The conditions noted are these: from valence of mouse sera. It counts as in vivo. As for the experimental part:
Allosteric peptide of Colicin Ia, i.e. Ia′, PMC-SA1 obtained in embodiment 1, wild-type colicin Ia and the anti-Staphylococcus aureus peptide (ZL01128836.1) which invented by the present inventor were taken respectively to immunize mice. After admixturing with the adjuvant, the above proteins were interaperitonea injected respectively to the mice by 50 μg per mouse for one time of foundational quantity and 50 μg per mouse for one time of additional quantity totally 5 times by two weeks interval. Indirect ELISA detection method was applied to detect the valence of mouse sera (Xiao Yi, et. al., Preparation and preliminary characterization of monoclonal antibodies against Pheromonicin-and-Staphylococcus aureus, Shanxi Medical Journal, 35(1): 6-7, 32 (2006)). The valence of mouse sera which immunized by wild type colicin Ia as well as anti-Staphylococcus aureus polypeptide (ZL01128836.1) was 10^−4 to 10^−5, while the valence of mouse sera which immunized by allosteric peptide of colicin Ia and PMC-SA1 was 10^−2 to 10^−3.

Data set [5] relates to methicillin-resistant Staphylococcus aureus (ATCC BAA-42). Briefly: Transmission electron microscope observation of bactericidal effect. It counts as cell-based. As for the experimental part:
Transmission Electron Microscope Observations of the Bactericidal Effect of the Novel Antibiotic PMC-SA1 on Methicillin-Resistant Staphylococcus aureus (ATCC BAA-42) (Dyed by 1% Phospho-Wolframic Acid, Magnified by 25,000 Fold)
Culture solution: 1% tryptone, 1% NaCl, 0.5% yeast extract, 0.5% glucose, 0.1% K2HPO4.
Con: control group, the bacterium was added to the above culture solution and proper amount of 0.3 M NaCl+50 mM boric acid buffer solution, 200 rpm, grew at 37° C. for 2 hours, and the bacterial appearance was still regular;
PMC: the bacterium was added to the above culture solution with 10 μg/ml PMC-SA1 for 0.5 hours.

Data set [6] has as its system Staphylococcus epidermidis reference culture No. 26069. In words: Bacteria growth curve (A595 nm cloudiness), Staphylococcus epidermidis. Conditions: drug 2 μg/ml, 37° C., A595 nm per hour. It counts as cell-based. The protocol:
The bacterium is Staphylococcus epidermidis reference culture No. 26069, purchased from China Center of Culture Collection (National Institute for the Control of Pharmaceutical and Biological Products). 3 microliter of bacterium solution (10^6 CFU/ml level bacterium amount) was added into 10 ml culture solution containing 1% peptone, 1% NaCl, 0.5% yeast extract, 0.5% glucose and 0.1% K2HPO4. Totally four groups were prepared. The first group as control was added 0.3M NaCl+50 mM boric acid buffer fluid by the same volume with that of antibiosis polypeptide liquid added in any experimental groups, the second group was added penicillin G sodium by 2 μg/ml, PMC-SA1 and PMC-SE was added in the other experimental groups by 2 μg/ml (0.3 M NaCl+50 mM boric acid buffer fluid was preservative fluid).
The solution of above groups was put into 100 ml conical flask, 200 rpm, grew at 37° C. 100 μl was sampled per hour, and added onto 96-pore ELISA plate to measure bacteria grown cloudiness by spectrophotometer (A595 nm) color comparison. The bacteria growth curve was drawn up to compare the bacteriostasis efficacy of the novel antibiotics.

B1: PMC-SA1: Staphylococcus aureus pheromone AgrD I linked to C-terminus of allosteric colicin Ia′; SEQ ID NO. 13; plasmid pBHC-SA1 (protein)
chain: SDPVRITNPAAESLGYDSDGREIMGVDIYLNPPRVDVFKGTPPAWSSFGNKTIWGGNEWVDDSPTRSDIEKRDKEITAYKNTLSAQQKENENKRTEAGKRLSAAIAAREKDENTLKTLRAGNADAADITRQEFRLLQAELREYGFRTEIAGYDALRLHTESRMLFADADSLRISPREARSLIEQAEKRQKDAQNADKKAADMLAEYERRKGILDTRLSELEKNGGAALAVLDAQQARLLGQQTRNDRAISEARNKLSSVTESLNTARNALTRAEQQLTQQKNTPDGKTIVSPEKFPGRSSTNHSIVVSGDPRFAGTIKITTSAVIDNRANLNYLLSHSGLDYKRNILNDRNPVVTEDVEGDKKIYNAEVAEWDKLRQRLLDARNKITSAESAVNSARNNLSARTNEQKHANDALNALLKEKENIRNQLSGINQKIAEEKRKQDELKATKDAINFTTEFLKSVSEKYGAKAEQLAREMAGQAKGKKIRNVEEALKTYEKYRADINKKINAKDRAAIAAALESVKLSDISSNLNRFSRGLGYAGKFTSLADWITEFGKAVRTENWRPLFVKTETIIAGNAATALVALVFSILTGSALGIIGYGLLMAVTGALIDESLVEKANKFWGIYSTCDFIM
modifications: The peptide of PMC-SA1
notes: Staphylococcus aureus pheromone AgrD I linked to C-terminus of allosteric colicin Ia′; 13; plasmid pBHC-SA1
Turning to B1, the MIC – broadly, the lowest concentration found to suppress growth – in data set [1] is 0.5 µg/mL; in data set [2] it was 0.5 µg/mL; against E. coli 02-1-65, 1 µg/mL; in the data set with Enterococcus ATCC 700802, 16 µg/mL. Besides, the “bacteriostasis effect on growth of methicillin-resistant Staphylococcus aureus (bacteria growth curve)” value in data set [3] is recorded as “the best”. The “possibility of causing host allergic reaction relative to anti-Staphylococcus aureus polypeptide” value in data set [4] is listed as “lower one to two order of magnitude”. Also, in data set [5] (10 μg/ml PMC-SA1 vs 500 μg/ml oxacillin), the “antibiosis effect relative to oxacillin (by molecular weight and concentration)” value is on record as “about eight thousand”. For the same molecule, in data set [5] (PMC-SA1 10 μg/ml, 0.5 hours), the “bactericidal effect, bacterial appearance under transmission electron microscope” value was “bacterium were ruptured, the contents were leaked out; also recorded: the bacterium ruptured and leaked out its contents; also recorded: could kill methicillin-resistant Staphylococcus aureus effectively”. The “growth of Staphylococcus epidermidis (bacteria growth curve)” value in data set [6] was “partly restrained”.
